In the assay the target is T1, inhibin B (UniProt P05111 233-366; P09529 293-407).
T1 sequence (looked up) 1: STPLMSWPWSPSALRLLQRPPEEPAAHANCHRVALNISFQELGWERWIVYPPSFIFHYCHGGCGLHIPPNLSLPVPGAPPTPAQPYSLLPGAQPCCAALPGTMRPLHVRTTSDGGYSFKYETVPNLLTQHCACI
T1 sequence (looked up) 2: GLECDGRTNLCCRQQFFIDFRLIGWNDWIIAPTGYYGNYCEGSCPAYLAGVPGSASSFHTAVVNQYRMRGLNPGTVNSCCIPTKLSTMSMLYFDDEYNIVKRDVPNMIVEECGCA
The experiment in a line: SPR. A general note: Surface plasmon resonance follows binding to a sensor surface in real time, without labels.

By Kd is commonly meant the equilibrium constant for the complex coming apart. Read a low Kd as tighter binding.

B1: murine TGFBR3L extracellular domain (R36-R211) (domain or fragment, UniProt D3YZZ2 36-211, looked up)
chain: RRPLFSLELSDAEDAFPRRAGPLEVPADSHVFVQAALARPSPRWGLALHRCSVTPSSRPTLGPALVLLRGGCPADDSVSFSPPPRPDAASVSRFSFRLRPVFNASVQFLHCQISRCRRRSSHHRRAVRLTPVPLTPPAPLRCLPQDEACAGSSLSLGTDSPHLHMLTQPIVVTIPR
The molecule B1 gave a Kd of 52 nM.

The values above are taken from paper PMC8673766 (Science Advances, 2021).
